Experimental findings from US20060134709A1 are described below.

Usually koff stands for a measure of how fast the partners let go of each other. A higher koff goes with a short-lived complex. By Kd is commonly meant the constant that tells how readily two partners part at equilibrium. A lower Kd goes with higher affinity. Usually kon stands for the second-order rate constant of association. A low value points to slower complex formation. In general, EC50 (read off the curve) refers to the concentration that produces a half-maximal response. A lower EC50 (read off the curve) goes with higher potency in that assay.

Assay [1] concerns the target soluble FcγRIIB (human) (UniProt P31994). The assay is described as follows: ELISA. (In an ELISA, binding on a coated surface is turned into a signal by an enzyme label.)
Assay [2] deals with soluble monomeric FcγRIIIA-linker-AVITAG (human) (UniProt P08637). The assay is described as follows: ELISA.
The target in assay [3] is FcγRIIB-Fc fusion protein (human) (UniProt P31994). Description: BIAcore. (In general: SPR reads the build-up and loss of mass on a sensor chip optically.)
The target in assay [4] is FcγRIIIA 158V (human) (UniProt P08637). The assay is described as follows: BIAcore.
Assay [5] addresses C1q. Description: BIAcore; 2B6 captured on soluble CD32B (2bLAvi) on a CM-5 chip, C1q injected.
For assay [6], the target named is soluble monomeric FcγRIIIA-linker-AVITAG (human) (UniProt P08637). Description: BIAcore.
The target in assay [7] is FcγRIIB-Fc fusion protein (human) (UniProt P31994). The assay is described as follows: ELISA of FcγRIIB-Fc binding; OD listed beside the sensorgrams.
For assay [8] the target is unchanged. The assay is described as follows: ELISA.
Assay [9] has the same target. The assay is described as follows: BIAcore. This is another data set of the same source.
Assay [10] has as its target monomeric human IgG. The assay is described as follows: ELISA.
Assay [11] concerns the target monomeric human IgG. The assay is described as follows: direct ELISA on plate-coated human IgG, detection with DJ130c and anti-mouse peroxidase.
In assay [12] the target is soluble monomeric FcγRIIIA-linker-AVITAG (human) (UniProt P08637). Description: ELISA of FcγRIIIA binding; OD listed beside the sensorgrams.
The target is the same in assay [13]. Description: BIAcore: ch4-4-20 captured on BSA-FITC, FcγRIIIA at 200 nM and 800 nM, separate fits, average of the two concentrations.
Assay [14] has as its target FcγRIIB-Fc fusion protein (human) (UniProt P31994). Description: BIAcore: ch4-4-20 captured on BSA-FITC, FcγRIIB-Fc at two concentrations, separate fits, average of the two.
Assay [15] has as its target soluble FcγRIIIA tetrameric complex (human) (UniProt P08637). The assay is described as follows: FACS titration of tetramer, 1.4 to 0.0006 µM.

Take “ch4-4-20 K288R, T307A, K344E, P396L (antibody)”: the values for the fold increase vs wt in assay [1] and in [2] were 2.3 x and 4.1 x, respectively. The Koff WT/Mut is 0.89 in assay [3] and 1.27 in assay [4].

As for 2B6 (panel FIG. 34B-1) (antibody), the koff in [5] was determined as 0.13 s⁻¹.

As for ch4-4-20 K334E, R292L (antibody), the ELISA, OD worked out at 1.25 OD in assay [2] and 0.1 OD in assay [7]. The Kd amounted to 108 nM in assay [3] and 70.2 nM in assay [6]. The koff in assay [3] is 0.107 s⁻¹; in [6] it was 0.105 s⁻¹. This substance also returned a kon in assay [6] of 1.43e+06 M⁻¹ s⁻¹.

Turning to ch4-4-20 K326E (antibody), in assay [8], the ELISA, OD was found to be 1.25 OD. Further, the fold increase vs wt in assay [1] amounted to 3.5 x. Also, in [2], the ELISA, OD amounted to 1 OD and the fold increase vs wt was determined as 2 x. Besides, in assay [6], the Kd amounted to 92 nM, the koff was found to be 0.112 s⁻¹ and the kon came out at 1.23e+06 M⁻¹ s⁻¹. In assay [9], this substance yielded a Kd of 51.7 nM and an off-rate constant (koff) of 0.043 s⁻¹.

In the case of ch4-4-20 P247L, N421K (antibody), in assay [2], the fold increase vs wt came to 3 x and the fold vs wt was 3 X. In [3], the Kd came out at 66 nM and the off-rate constant (koff) was determined as 0.065 s⁻¹. In assay [6], this substance registered a Kd of 62 nM and a koff of 0.108 s⁻¹.

The substance ch4-4-20 R292G (antibody) showed a Koff WT/Mut in assay [3] of 0.67.

As for ch4-4-20 E233G (antibody), the Koff WT/Mut in assay [3] was 0.54.

As to “soluble FcγRIIIA tetrameric complex (from UniProt P08637 17-203) (receptor)”, the fold avidity vs monomeric receptor in [10] was 8 to 10 fold. In assay [11], the EC50 (read off the curve) turned out to be 1 µg/mL.

In assay [5], 2B6 (panel FIG. 34B-2) (antibody) registered a Kd of 7 nM and an off-rate constant (koff) of 0.06 s⁻¹.

For the substance ch4-4-20 K288N, A330S, P396L (antibody), the ELISA, OD in assay [8] was 1.2 OD; in assay [2], 1 OD. Moreover, the values for the Kd in assay [3] and in assay [9] were 33.4 nM and 41.3 nM, respectively.

As for ch4-4-20 K334E, T359N, T366S (antibody), in assay [2], the fold increase vs wt came out at 1.5 x and the fold vs wt came out at 1.5 X. In assay [3], this substance returned a Kd of 72 nM and a koff of 0.11 s⁻¹. Also, in assay [6], the Kd was determined as 55.2 nM and the koff was found to be 0.128 s⁻¹.

For the substance ch4-4-20 K246I, K334N (antibody), the Kd in assay [9] amounted to 45.3 nM; in assay [13], 100 nM. Also, the ELISA, OD in assay [12] is 0.75 OD.

As to ch4-4-20 F243L, R255L (antibody), the fold vs wt in [2] came out at 1 x. Further, the Kd in assay [3] is 74.7 nM; in assay [6], 90 nM; in [14], 82.3 nM; in assay [13], 91.8 nM. The koff was found to be 0.09 s⁻¹ in [3], 0.075 s⁻¹ in assay [6], 0.1 s⁻¹ in [14] and 0.073 s⁻¹ in assay [13]. For the same substance, the ELISA, OD in [12] worked out at 0.37 OD; in assay [7] it was 0.1 OD.

For the substance ch4-4-20 K392T, P396L (antibody), the figures for the fold increase vs wt in assay [1] and in assay [2] were 2.5 x and 4.5 x, respectively. For the same substance, the fold vs wt in assay [1] was 2.5 X; in assay [2], 4.5 X. Also, the Kd is 50 nM in assay [3] and 84 nM in assay [6]. Also, the Koff WT/Mut in assay [3] is 2.3; in [4], 1.64. For the same substance, the results for the off-rate constant (koff) in assay [3] and in assay [6] were 0.041 s⁻¹ and 0.104 s⁻¹, respectively.

With ch4-4-20 N276Y (antibody), the Koff WT/Mut in assay [3] worked out at 0.64.

In assay [3], ch4-4-20 F243I, V379L, G420V (antibody) came in with a Kd of 93.4 nM and a koff of 0.101 s⁻¹.

ch4-4-20 A330V (antibody) displayed a Koff WT/Mut in assay [3] of 0.61.

In turn, ch4-4-20 V379M (antibody) gave a Kd in [6] of 160 nM.

Turning to ch4-4-20 G316D, A378V, D399E (antibody), the fold increase vs wt in assay [1] was found to be 14 x; in assay [2], 1.5 x. In addition, the fold vs wt in assay [1] was determined as 14 X; in [2], 1.5 X. Further, the Kd worked out at 46 nM in [3] and 72 nM in [6]. The koff in assay [3] was 0.06 s⁻¹; in assay [6], 0.117 s⁻¹.

For ch4-4-20 S298N, K360R, N361D (antibody), the Koff WT/Mut in assay [3] worked out at 0.67.

For ch4-4-20 A330V, G427M (antibody), in assay [3], the Koff WT/Mut was determined as 0.62.

With ch4-4-20 K248M (antibody), the Koff WT/Mut in assay [3] stood at 1.03; in assay [4], 0.977. For the same substance, the Kd in [3] (Fc variant MGFc 37) worked out at 100 nM; in assay [3] (Fc variant MGFc 40), 110 nM. Further, the koff was found to be 0.091 s⁻¹ in assay [3] (Fc variant MGFc 37) and 0.09 s⁻¹ in assay [3] (Fc variant MGFc 40).

With ch4-4-20 Mut 6 (S219V) (antibody), the values for the ELISA, OD in assay [8] and in [2] were 0.35 OD and 0.6 OD, respectively. Besides, the Kd came out at 264 nM in assay [6] and 66.5 nM in [9]. Moreover, the dissociation rate constant (koff) is 0.175 s⁻¹ in assay [6], 0.06 s⁻¹ in assay [9] and 0.173 s⁻¹ in assay [13]. In [6], this substance yielded a kon of 667000 M⁻¹ s⁻¹.

ch4-4-20 K261N, K210M, P396L (antibody): the fold increase vs wt in assay [1] was 4.2 x; in [2], 2 x. Further, the Koff WT/Mut in assay [3] was 0.85; in assay [4], 1.29.

Regarding ch4-4-20 F243I, V379L (antibody), the figures for the Kd in assay [3] and in assay [6] were 120 nM and 99.7 nM, respectively. In addition, the koff was 0.113 s⁻¹ in [3] and 0.105 s⁻¹ in assay [6].

On to ch4-4-20 F372Y (antibody), for which the ELISA, OD was determined as 1.55 OD in assay [8] and 1 OD in assay [12]. This substance also came in with a Kd in assay [13] of 84.8 nM.

Turning to ch4-4-20 P217S, P396L (antibody), the fold increase vs wt in [1] was 4.5 x; in [2], 1.6 x. Besides, the Koff WT/Mut in [3] came out at 0.95; in [4], 1.17.

Turning to ch4-4-20 P227S, K290E (antibody), the fold increase vs wt came out at 0.5 x in [1] and 1 x in assay [2].

Take “Aga2p-CH1-CH3 fusion (pYD-CH1), wild type Fc on yeast”: in assay [15], the Kd is 6 nM.

For ch4-4-20 H268D, P396L (antibody), the results for the fold increase vs wt in assay [1] and in [2] were 13.7 x and 3.8 x, respectively.

As for ch4-4-20 K317N, F423-deleted (antibody), the results for the fold increase vs wt in [1] and in [2] were 7 x and 2.5 x, respectively.

Turning to ch4-4-20 H268N, P396L (antibody), in [1], the fold increase vs wt worked out at 4.5 x and the fold vs wt amounted to 4.5 X. In addition, in assay [2], the fold increase vs wt amounted to 2.2 x and the fold vs wt stood at 2.2 X. Further, in assay [3], the Kd was determined as 46.6 nM, the Koff WT/Mut came to 1.04 and the koff worked out at 0.036 s⁻¹. This substance also registered a Koff WT/Mut in assay [4] of 0.92. Moreover, in [6], the Kd was 178 nM and the koff came out at 0.159 s⁻¹.

Turning to ch4-4-20 Y319F, P352L, P396L (antibody), the Kd stood at 55.7 nM in [3] and 125 nM in [6].

Regarding ch4-4-20 E293V, Q295E, A327T (antibody), in [2], the fold increase vs wt was determined as 0.4 x and the fold vs wt was determined as 1.4 X. In assay [3], the Kd is 86 nM, the Koff WT/Mut is 1.3 and the koff was 0.074 s⁻¹. The substance further displayed a Koff WT/Mut in assay [4] of 0.86. Also, in assay [6], the Kd worked out at 195 nM and the koff turned out to be 0.198 s⁻¹.

Consider ch4-4-20 K210M, P396L (antibody), for which the fold increase vs wt in assay [1] is 4.6 x; in assay [2], 1.9 x.

In the case of ch4-4-20 V323I, P396L (antibody), the fold increase vs wt was determined as 8.2 x in assay [1] and 1.1 x in assay [2].

In the case of ch4-4-20 "term is M, P396L" (antibody), the fold increase vs wt was 7.2 x in [1] and 1.9 x in assay [2].

Regarding chimeric 4-4-20 antibody, wild type Fc, the ELISA, OD turned out to be 0.4 OD in [8] and 0.5 OD in assay [2]. The Kd is 94 nM in assay [3], 198 nM in [6] and 61.4 nM in assay [9]. In addition, the figures for the koff in [3], in [9] and in assay [14] were 0.094 s⁻¹, 0.085 s⁻¹ and 0.0847 s⁻¹, respectively.

On to ch4-4-20 K334E, E380D (antibody), for which the fold increase vs wt in assay [1] is 4.5 x; in [2], 1.5 x.

Regarding ch4-4-20 K288M, K334E (antibody), in [2], the ELISA, OD amounted to 1.1 OD; the fold increase vs wt stood at 3 x; the fold vs wt was determined as 3 X. In [3], this substance returned a Kd of 95.6 nM and a koff of 0.089 s⁻¹. In assay [6], the Kd is 75.4 nM, the koff is 0.1 s⁻¹ and the kon was found to be 1.37e+06 M⁻¹ s⁻¹. In addition, in assay [7], the ELISA, OD was 0.13 OD.

Turning to ch4-4-20 K370N, S440N (antibody), the fold increase vs wt was 3.5 x in [1] and 1 x in [2].

For the substance ch4-4-20 V303I, P396L (antibody), the fold increase vs wt in assay [1] was determined as 4 x; in [2], 1.1 x.
